Molecular target: TgAMA1, intact full-length integral membrane form (Toxoplasma gondii (endogenous in RH strain parasites)) (UniProt B6KAM0)
UniProt B6KAM0, sequence (B6KAM0 67-569): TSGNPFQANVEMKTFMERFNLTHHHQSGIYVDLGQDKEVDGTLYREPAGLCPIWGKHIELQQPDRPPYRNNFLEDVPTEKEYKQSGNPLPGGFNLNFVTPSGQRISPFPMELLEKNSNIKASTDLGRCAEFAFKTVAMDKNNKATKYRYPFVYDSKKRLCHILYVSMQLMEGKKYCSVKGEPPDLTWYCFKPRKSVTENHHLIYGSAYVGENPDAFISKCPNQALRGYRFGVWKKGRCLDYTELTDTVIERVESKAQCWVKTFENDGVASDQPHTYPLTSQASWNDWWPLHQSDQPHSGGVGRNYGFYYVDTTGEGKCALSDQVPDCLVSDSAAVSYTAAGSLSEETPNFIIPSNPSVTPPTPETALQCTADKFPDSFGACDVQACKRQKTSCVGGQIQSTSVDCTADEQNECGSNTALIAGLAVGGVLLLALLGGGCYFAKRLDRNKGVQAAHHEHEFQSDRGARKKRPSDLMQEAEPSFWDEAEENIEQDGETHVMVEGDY

For “GST-domain 3 (D3) of TgRON2 (domain or fragment)”, which decrease in invasion efficiency of RHΔama1/AMA1-myc parasites (about 10% of wild-type TgAMA1 level) after pre-incubation with 2.5-5 µM GST-D3, relative to buffer control is on record?
The decrease in invasion efficiency of RHΔama1/AMA1-myc parasites (about 10% of wild-type TgAMA1 level) after pre-incubation with 2.5-5 µM GST-D3, relative to buffer control was 87%.

Reference: PMC3037364
